Measurements taken from the supplement of paper PMC11246515.
± gives the standard deviation of the averaged measurements.

Test: total protein half-life in vivo (active degradation + dilution); higher = more stable protein
[1] = E. coli NCM3722 delta-clpP delta-lon delta-hslV, growth: N-lim chemostat, doubling time 6 h
[2] = E. coli NCM3722 delta-clpP, growth: N-lim chemostat, doubling time 6 h
[3] = E. coli NCM3722 delta-hslV, growth: N-lim chemostat, doubling time 6 h
[4] = E. coli NCM3722 delta-lon, growth: N-lim chemostat, doubling time 6 h
[5] = E. coli NCM3722 delta-smpB, growth: N-lim chemostat, doubling time 6 h
[6] = wild type E. coli NCM3722, growth: C-lim chemostat, doubling time 3 h
[7] = wild type E. coli NCM3722, growth: C-lim chemostat, doubling time 6 h
[8] = wild type E. coli NCM3722, growth: C-lim chemostat, doubling time 12 h
[9] = wild type E. coli NCM3722, growth: N-lim chemostat, doubling time 6 h
[10] = wild type E. coli NCM3722, growth: N-lim chemostat, doubling time 12 h
[11] = wild type E. coli NCM3722, growth: P-lim chemostat, doubling time 6 h
[12] = wild type E. coli NCM3722, growth: P-lim chemostat, doubling time 12 h

Sequence | total protein half-life in vivo [1] [h] | total protein half-life in vivo [2] [h] | total protein half-life in vivo [3] [h] | total protein half-life in vivo [4] [h] | total protein half-life in vivo [5] [h] | total protein half-life in vivo [6] [h] | total protein half-life in vivo [7] [h] | total protein half-life in vivo [8] [h] | total protein half-life in vivo [9] [h] | total protein half-life in vivo [10] [h] | total protein half-life in vivo [11] [h] | total protein half-life in vivo [12] [h]
MSHKPAHLLLVDDDPGLLKLLGLRLTSEGYSVVTAESGAEGLRVLNREKVDLVISDLRMDEMDGMQLFAEIQKVQPGMPVIILTAHGSIPDAVAATQQGVFSFLTKPVDKDALYQAIDDALEQSAPATDERWREAIVTRSPLMLRLLEQARLVAQSDVSVLINGQSGTGKEIFAQAIHNASPRNSKPFIAINCGALPEQLLESELFGHARGAFTGAVSNREGLFQAAEGGTLFLDEIGDMPAPLQVKLLRVLQERKVRPLGSNRDIDINVRIISATHRDLPKAMARGEFREDLYYRLNVVSLKIPALAERTEDIPLLANHLLRQAAERHKPFVRAFSTDAMKRLMTASWPGNVRQLVNVIEQCVALTSSPVISDALVEQALEGENTALPTFVEARNQFELNYLRKLLQITKGNVTHAARMAGRNRTEFYKLLSRHELDANDFKE [P0AFU4] | 6.81 ± 1.7 | 4.73 ± 0.42 | 4.48 ± 0.2 | 5 ± 0.17 | 4.45 ± 0.29 | 3.25 ± 0.19 | 5.86 ± 0.38 | 11 ± 2.4 | 4.26 ± 0.069 | 7.72 ± 0.09 | 5.4 ± 0.19 | 12 ± 0.29
MSHRRSTVKGSLSFANPTVRAWLFQILAVVAVVGIVGWLFHNTVTNLNNRGITSGFAFLDRGAGFGIVQHLIDYQQGDTYGRVFIVGLLNTLLVSALCIVFASVLGFFIGLARLSDNWLLRKLSTIYIEIFRNIPPLLQIFFWYFAVLRNLPGPRQAVSAFDLAFLSNRGLYIPSPQLGDGFIAFILAVVMAIVLSVGLFRFNKTYQIKTGQLRRTWPIAAVLIIGLPLLAQWLFGAALHWDVPALRGFNFRGGMVLIPELAALTLALSVYTSAFIAEIIRAGIQAVPYGQHEAARSLGLPNPVTLRQVIIPQALRVIIPPLTSQYLNIVKNSSLAAAIGYPDMVSLFAGTVLNQTGQAIETIAMTMSVYLIISLTISLLMNIYNRRIAIVER |  |  | 3.79 |  |  |  |  |  | 4.44 ± 0.14 | 6.58 |  | 
MSHWATFKQTATNLWVTLRHDILALAVFLNGLLIFKTIYGMSVNLLDIFHIKAFSELDLSLLANAPLFMLGVFLVLNSIGLLFRAKLAWAISIILLLIALIYTLHFYPWLKFSIGFCIFTLVFLLILRKDFSHSSAAAGTIFAFISFTTLLFYSTYGALYLSEGFNPRIESLMTAFYFSIETMSTVGYGDIVPVSESARLFTISVIISGITVFATSMTSIFGPLIRGGFNKLVKGNNHTMHRKDHFIVCGHSILAINTILQLNQRGQNVTVISNLPEDDIKQLEQRLGDNADVIPGDSNDSSVLKKAGIDRCRAILALSDNDADNAFVVLSAKDMSSDVKTVLAVSDSKNLNKIKMVHPDIILSPQLFGSEILARVLNGEEINNDMLVSMLLNSGHGIFSDNDELETKADSKESAQK | 5.54 ± 0.5 | 5.47 |  | 5.25 ± 0.22 | 4.7 ± 0.18 | 2.43 ± 0.039 | 4.78 ± 0.82 | 7.86 | 4.54 ± 0.47 | 9.01 ± 0.45 |  | 9.87 ± 0.24
MSHYHEQFLKQNPLAVLGVLRDLHKAAIPLRLSWNGGQLISKLLAITPDKLVLDFGSQAEDNIAVLKAQHITITAETQGAKVEFTVEQLQQSEYLQLPAFITVPPPTLWFVQRRRYFRISAPLHPPYFCQTKLADNSTLRFRLYDLSLGGMGALLETAKPAELQEGMRFAQIEVNMGQWGVFHFDAQLISISERKVIDGKNETITTPRLSFRFLNVSPTVERQLQRIIFSLEREAREKADKVRD | 5.94 ± 0.77 |  |  |  | > 8 | 1.21 ± 0.24 | 1.87 ± 0.3 | 2.88 ± 0.52 |  |  |  | 
MSIAVTTTDPTNTGVSTTSSSSLTGSNAADLQSSFLTLLVAQLKNQDPTNPMENNELTSQLAQISTVSGIEKLNTTLGSISGQIDNSQSLQASNLIGHGVMIPGTTVLAGTGSEEGAVTTTTPFGVELQQAADKVTATITDKNGAVVRTIDIGELTAGVHSFTWDGTLTDGSTAPNGSYNVAISASNGGTQLVAQPLQFALVQGVIRGNSGNTLDLGTYGTTTLDEVRQII | 3.99 ± 0.28 |  |  |  |  | 0.36 ± 0.076 | 1.65 | 0.363 |  |  |  | 
MSIDFTPGIINTYHGDIYNCTTNTDNAKTPDTPKWPCDNWEEQQPINSTFSGEGYISDQYDLAQHQLQQINACHTNTTYTNADYSKVVAQLVSLITNIETISSTQLTQQTQSILNQINNIRYEKNKSAECRIIVIANPKPDKAIITKISVEEGIPITFSVQTMFSDTNFIAEQRADLPTNIKDIQSLYQKMTKLYIEHSENKNRMKVFAGTNFIDFNMTGQNLSGFVLTLSRFYFEDLLNINFTDANLGKVRISGEILLG |  | 5.86 |  |  |  |  |  |  |  | 8.68 |  | 14.6
MSIIKEFREFAMRGNVVDLAVGVIIGAAFGKIVSSLVADIIMPPLGLLIGGIDFKQFAVTLRDAQGDIPAVVMHYGVFIQNVFDFLIVAFAIFMAIKLINKLNRKKEEPAAAPAPTKEEVLLTEIRDLLKEQNNRS [P0A742] | 5.9 ± 0.17 | 5.99 ± 0.24 | 6.46 ± 0.16 | 5.9 ± 0.71 | 6.222 ± 0.036 | 3.17 ± 0.14 | 6.12 ± 0.27 | 12.4 ± 1.9 | 6.41 ± 0.12 | 11.5 ± 2.5 | 5.8 ± 0.23 | 13.3 ± 1.1
MSIKEQTLMTPYLQFDRNQWAALRDSVPMTLSEDEIARLKGINEDLSLEEVAEIYLPLSRLLNFYISSNLRRQAVLEQFLGTNGQRIPYIISIAGSVAVGKSTTARVLQALLSRWPEHRRVELITTDGFLHPNQVLKERGLMKKKGFPESYDMHRLVKFVSDLKSGVPNVTAPVYSHLIYDVIPDGDKTVVQPDILILEGLNVLQSGMDYPHDPHHVFVSDFVDFSIYVDAPEDLLQTWYINRFLKFREGAFTDPDSYFHNYAKLTKEEAIKTAMTLWKEINWLNLKQNILPTRERASLILTKSANHAVEEVRLRK [P0A6I3] | 4.81 ± 0.35 | 5.07 ± 0.72 | 4.053 ± 0.029 | 4.54 ± 0.22 | 4.28 ± 0.39 | 3.07 ± 0.17 | 5.71 ± 0.51 | 8.55 ± 0.56 | 4.41 ± 0.7 | 7.123 ± 0.068 | 5.6077 ± 0.0014 | 12.5 ± 0.64
MSIKNLPADYLLAAQQGDIDKVKTCLALGVDINTCDRQGKTAITLASLYQQYACVQALIDAGADINKQDHTCLNPFLISCLNDDLTLLRIILPAKPDLNCVTRFGGVGLTPACEKGHLSIVKELLAHTEINVNQTNHVGWTPLLEAIVLNDGGIKQQAIVQLLLEHGASPHLTDKYGKTPLELARERGFEEIAQLLIAAGA | 5.2 |  |  |  |  |  |  |  |  |  |  | 
MSIKQMPGRVLISLLLSVTGLLSGCASHNENASLLAKKQAQNISQNLPIKSAGYTLVLAQSSGTTVKMTIISEAGTQTTQTPDAFLTSYQRQMCADPTVKLMITEGINYSITINDTRTGNQYQRKLDRTTCGIVKA |  |  |  |  |  |  |  |  | > 8 |  | 3.91 ± 0.68 | 7.3 ± 0.4
MSILVTRPSPAGEELVSRLRTLGQVAWHFPLIEFSPGQQLPQLADQLAALGESDLLFALSQHAVAFAQSQLHQQDRKWPRLPDYFAIGRTTALALHTVSGQKILYPQDREISEVLLQLPELQNIAGKRALILRGNGGRELIGDTLTARGAEVTFCECYQRCAIHYDGAEEAMRWQAREVTMVVVTSGEMLQQLWSLIPQWYREHWLLHCRLLVVSERLAKLARELGWQDIKVADNADNDALLRALQ | 5.34 ± 0.71 | 4.14 ± 0.96 | 4.13 ± 0.24 | 4.69 ± 0.62 | 3.57 ± 0.23 | 2.351 ± 0.014 | 4.45 ± 0.14 | 9.45 ± 3.5 | 3.83 ± 0.21 | 6.5 ± 0.57 | 5.08 ± 0.62 | 9.38 ± 0.13
MSIPFTRWPEEFARRYREKGYWQDLPLTDILTRHAASDSIAVIDGERQLSYRELNQAADNLACSLRRQGIKPGETALVQLGNVAELYITFFALLKLGVAPVLALFSHQRSELNAYASQIEPALLIADRQHALFSGDDFLNTFVTEHSSIRVVQLLNDSGEHNLQDAINHPAEDFTATPSPADEVAYFQLSGGTTGTPKLIPRTHNDYYYSVRRSVEICQFTQQTRYLCAIPAAHNYAMSSPGSLGVFLAGGTVVLAADPSATLCFPLIEKHQVNVTALVPPAVSLWLQALIEGESRAQLASLKLLQVGGARLSATLAARIPAEIGCQLQQVFGMAEGLVNYTRLDDSAEKIIHTQGYPMCPDDEVWVADAEGNPLPQGEVGRLMTRGPYTFRGYYKSPQHNASAFDANGFYCSGDLISIDPEGYITVQGREKDQINRGGEKIAAEEIENLLLRHPAVIYAALVSMEDELMGEKSCAYLVVKEPLRAVQVRRFLREQGIAEFKLPDRVECVDSLPLTAVGKVDKKQLRQWLASRASA | 5.38 | 4.77 | 5.82 |  |  | 2.73 ± 0.086 | 5.32 |  |  |  |  | 10.7
MSIQLNGINCFYGAHQALFDITLDCPQGETLVLLGPSGAGKSSLLRVLNLLEMPRSGTLNIAGNHFDFTKTPSDKAIRDLRRNVGMVFQQYNLWPHLTVQQNLIEAPCRVLGLSKDQALARAEKLLERLRLKPYSDRYPLHLSGGQQQRVAIARALMMEPQVLLFDEPTAALDPEITAQIVSIIRELAETNITQVIVTHEVEVARKTASRVVYMENGHIVEQGDASCFTEPQTEAFKNYLSH [P0AAF6] | 6.06 ± 0.7 | 5.54 ± 0.19 | 6.4 | 5.57 ± 0.91 | 4.77 ± 0.37 | > 4 | 6.19 ± 0.35 | 11.9 | 5.55 ± 0.86 | 10.5 ± 0.48 | 6.11 | 11.6 ± 0.25
MSIVVKNNIHWVGQRDWEVRDFHGTEYKTLRGSSYNSYLIREEKNVLIDTVDHKFSREFVQNLRNEIDLADIDYIVINHAEEDHAGALTELMAQIPDTPIYCTANAIDSINGHHHHPEWNFNVVKTGDTLDIGNGKQLIFVETPMLHWPDSMMTYLTGDAVLFSNDAFGQHYCDEHLFNDEVDQTELFEQCQRYYANILTPFSRLVTPKITEILGFNLPVDMIATSHGVVWRDNPTQIVELYLKWAADYQEDRITIFYDTMSNNTRMMADAIAQGIAETDPRVAVKIFNVARSDKNEILTNVFRSKGVLVGTSTMNNVMMPKIAGLVEEMTGLRFRNKRASAFGSHGWSGGAVDRLSTRLQDAGFEMSLSLKAKWRPDQDALKLCREHGREIARQWALAPLPQSTVNTVVKEETSATTTADLGPRMQCSVCQWIYDPAKGEPMQDVAPGTPWSEVPDNFLCPECSLGKDVFEELASEAK | 5.32 ± 0.78 | 3.24 |  |  | 1.57 |  |  |  | 2.75 |  |  | 10.1 ± 7.1
MSIYKIPLPLNILEAARERITWTLNTLPRVCVSFSGGKDSGLMLHLTAELARQMGKKICVLFIDWEAQFSCTINYVQSLRELYTDVIEEFYWVALPLTTQNSLSQYQPEWQCWEPDVEWVRQPPQDAITDPDFFCFYQPGMTFEQFVREFAEWFSQKRPAAMMIGIRADESYNRFVAIASLNKQRFADDKPWTTAAPGGHSWYIYPIYDWKVADIWTWYANHQSLCNPLYNLMYQAGVPLRHMRICEPFGPEQRQGLWLYHVIEPDRWAAMCARVSGVKSGGIYAGHDNHFYGHRKILKPEHLDWQEYALLLLNSMPEKTAEHYRNKIAIYLHWYQKKGIEVPQTQQGDIGAKDIPSWRRICKVLLNNDYWCRALSFSPTKSKNYQRYNERIKGKRQEWGILCNND | 5.55 |  | 6.21 | 4.82 |  |  |  |  |  |  |  | 
MSKARRWVIIVLSLAVLVMIGINMAEKDDTAQVVVNNNDPTYKSEHTDTLVYNPEGALSYRLIAQHVEYYSDQAVSWFTQPVLTTFDKDKIPTWSVKADKAKLTNDRMLYLYGHVEVNALVPDSQLRRITTDNAQINLVTQDVTSEDLVTLYGTTFNSSGLKMRGNLRSKNAELIEKVRTSYEIQNKQTQP [P0ADV9] | 5.91 ± 0.18 | 5.86 ± 0.15 | 5.92 ± 0.41 | 5.82 ± 0.13 | 6.78 ± 0.24 |  | 5.98 ± 0.17 | 11.2 ± 1.9 | 5.55 ± 0.17 | 11.1 ± 0.99 | 5.85 ± 0.087 | 11.98 ± 0.014
